Measured values: US20120244144A1 (University of Texas, published 2012)
Substitutions are numbered along the chain they refer to.

Columns and labels:
Assay in all cases: SPR, mAb 1B7 immobilised ~1000 RU
PTx-S1-220 R79A = target: T1, PTx-S1-220 R79A (Bordetella pertussis strain Tohama I, UniProt P04977 36-255, R79A)
T1 sequence: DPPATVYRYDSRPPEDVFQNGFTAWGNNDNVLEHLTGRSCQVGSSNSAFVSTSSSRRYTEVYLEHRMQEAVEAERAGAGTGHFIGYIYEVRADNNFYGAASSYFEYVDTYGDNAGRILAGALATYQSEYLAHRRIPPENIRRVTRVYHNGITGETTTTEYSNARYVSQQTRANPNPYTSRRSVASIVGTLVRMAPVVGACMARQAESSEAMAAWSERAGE

PTx-S1-220 R146A = target: T2, PTx-S1-220 R146A (Bordetella pertussis strain Tohama I, UniProt P04977 36-255, R146A)
T2 sequence: T1 sequence with A78R, R145A

PTx-S1-220 T81A = target: T3, PTx-S1-220 T81A (Bordetella pertussis strain Tohama I, UniProt P04977 36-255, T81A)
T3 sequence: T1 sequence with A78R, T80A

PTx-S1-220 T153A = target: T4, PTx-S1-220 T153A (Bordetella pertussis strain Tohama I, UniProt P04977 36-255, T153A)
T4 sequence: T1 sequence with A78R, T152A

PTx-S1-220 R39A = target: T5, PTx-S1-220 R39A (Bordetella pertussis strain Tohama I, UniProt P04977 36-255, R39A)
T5 sequence: T1 sequence with R38A, A78R

PTx-S1-220 E16A = target: T6, PTx-S1-220 E16A (Bordetella pertussis strain Tohama I, UniProt P04977 36-255, E16A)
T6 sequence: T1 sequence with E15A, A78R

PTx-S1-220 T159A = target: T7, PTx-S1-220 T159A (Bordetella pertussis strain Tohama I, UniProt P04977 36-255, T159A)
T7 sequence: T1 sequence with A78R, T158A

PTx-S1-220 T156A = target: T8, PTx-S1-220 T156A (Bordetella pertussis strain Tohama I, UniProt P04977 36-255, T156A)
T8 sequence: T1 sequence with A78R, T155A

PTx-S1-220 E210A = target: T9, PTx-S1-220 E210A (Bordetella pertussis strain Tohama I, UniProt P04977 36-255, E210A)
T9 sequence: T1 sequence with A78R, E209A

PTx-S1-220 H83A = target: T10, PTx-S1-220 H83A (Bordetella pertussis strain Tohama I, UniProt P04977 36-255, H83A)
T10 sequence: T1 sequence with A78R, H82A

B1: monoclonal antibody 1B7 (antibody)
chain: DIQMTQSPALMSASPGEKVTMTCSASSSVSFMYWYQQKPRSSPKPWIYLTSNLPSGVPARFSGSGSGTSYSLTISSMEAEDAATYYCQQWSSHPPTFGSGTKLEIKRGGGGSGGGGSGGGGSGGGGSEVQLQQSGSELVRPGASVKLSCKASGYKFTSYWMHWVKQRPGQGLEWIGNIFPGSGSTNYDEKFNSKATLTVDTSSNTAYMQLSSLTSEDSAVYYCTRWLSGAYFDYWGQGTTLTVSSASGA
notes: also called mAb 1B7; 1B7 mAb
PTx-S1-220 R79A
  koff: 0.025 s⁻¹
PTx-S1-220 R146A
  koff: 0.0015 s⁻¹
PTx-S1-220 T81A
  koff: 0.0017 s⁻¹
PTx-S1-220 T153A
  koff: 0.002 s⁻¹
PTx-S1-220 R39A
  koff: 0.003 s⁻¹
PTx-S1-220 E16A
  koff: 0.0016 s⁻¹
PTx-S1-220 T159A
  koff: 0.0014 s⁻¹
PTx-S1-220 T156A
  koff: 0.0011 s⁻¹
PTx-S1-220 E210A
  koff: 0.0016 s⁻¹
PTx-S1-220 H83A
  koff: 0.01 s⁻¹
